The assay addresses T1, human CCR1-EGFP expressed on HEK293T cells (human, UniProt P32246 1-355).
T1 construct: whole, on cells; Transiently transfected HEK293T cells; the fusion localized to the cell membrane; also called CCR1-expressing cells; not shown: EGFP from the pEGFP-N1 vector
T1 sequence (looked up): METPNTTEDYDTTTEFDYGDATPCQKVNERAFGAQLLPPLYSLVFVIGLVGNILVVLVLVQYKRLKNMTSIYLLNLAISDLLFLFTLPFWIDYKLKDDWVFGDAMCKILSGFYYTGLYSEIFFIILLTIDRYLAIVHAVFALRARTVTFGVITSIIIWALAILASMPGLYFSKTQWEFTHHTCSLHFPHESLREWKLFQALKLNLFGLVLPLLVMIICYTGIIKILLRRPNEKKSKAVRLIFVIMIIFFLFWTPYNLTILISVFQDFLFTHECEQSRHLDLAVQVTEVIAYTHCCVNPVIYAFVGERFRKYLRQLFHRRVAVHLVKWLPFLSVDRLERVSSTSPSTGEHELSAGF
Description: flow cytometry (FACS) on CCR1-EGFP-transfected HEK293T cells, detection with FITC anti-tag antibody. On the procedure:
Human CCR5 was amplified and cloned into to pEGFP-N1 vector. Human CCR1 receptor, also a CC chemokine receptor, was included as a control. HEK293T cells were transfected with CCR5-EGFP or CCR1-EGFP plasmids and 1d after transfection, cells were washed with PBS and detached from culture dish by trypsin. 1×10″6 cells were put into FACS tube in 100 μl complete media and kept on ice (cells were kept cold for remainder of the assay). Cells were treated with recombinant HRS-SV11 protein for 45′. Then cells were washed once with 1 ml staining buffer (1×PBS+3% FBS) and spin down at 4° C., 400×g for 10′. After wash, cells were incubated with 0.3 μl primary anti-V5-FITC antibody (3 μg/ml) in 100 μl staining buffer for 30′ in dark (kept in dark for remainder of the assay). Cells were then washed twice with 1 ml staining buffer, 4° C., 400×g for 10′ and spun down. After the final wash, cell pellets were resuspended in 800 μl staining buffer and analyzed immediately by FACS.

B1: recombinant HRS-SV11 splice variant polypeptide of human histidyl-tRNA synthetase with C-terminal polyhistidine tag (6xHis) (ligand)
chain: MAERAALEELVKLQGERVRGLKQQKASAELIEEEVAKLLKLKAQLGPDESKQKFVLKTPKALEEKIRTTETQVLVASAQKKLLEERLKLVSELWDAGIKAELLYKKNPKLLNQLQYCEEAGIPLVAIIGEQELKDGVIKLRSVTSREEVDVRREDLVEEIKRRTGQPLCICHHHHHH
notes: Expressed in E. coli from pET20b (EcoRV/NotI, no stop codon) and purified on Ni-NTA; By gel filtration it switches between monomer and dimer; also called wild type HRS-SV11
For B1, the binding result was “no binding”.

The record behind these values is US20100297149A1 (ATYR PHARMA, published 2010).
